Measurements taken from patent US20140178854A1.

What was measured:
[1] = target: gp70 env protein of amphotropic MLV (4070A envelope), on purified viral particles (amphotropic murine leukemia virus (4070A envelope)); assay: ELISA on plate-bound MLV, dilution factor 250, Exp072-DTV Plate 1
[2] = target: gp70 env protein of amphotropic MLV (4070A envelope), on purified viral particles (amphotropic murine leukemia virus (4070A envelope)); assay: ELISA on plate-bound MLV, dilution factor 50, Exp122-Ana Plate 2
[3] = target: gp70 env protein of amphotropic MLV (4070A envelope), on purified viral particles (amphotropic murine leukemia virus (4070A envelope)); assay: ELISA on plate-bound MLV, dilution factor 781250, Exp072-DTV Plate 1
[4] = target: gp70 env protein of amphotropic MLV (4070A envelope), on purified viral particles (amphotropic murine leukemia virus (4070A envelope)); assay: ELISA on plate-bound MLV, dilution factor 10, Exp125-Ana Plate 2
[5] = target: gp70 env protein of amphotropic MLV (4070A envelope), on purified viral particles (amphotropic murine leukemia virus (4070A envelope)); assay: ELISA on plate-bound MLV, dilution factor 10, Exp122-Ana Plate 1
[6] = target: gp70 env protein of amphotropic MLV (4070A envelope), on purified viral particles (amphotropic murine leukemia virus (4070A envelope)); assay: ELISA on plate-bound MLV, dilution factor 6250, Exp122-Ana Plate 1
[7] = target: gp70 env protein of amphotropic MLV (4070A envelope), on purified viral particles (amphotropic murine leukemia virus (4070A envelope)); assay: ELISA on plate-bound MLV, dilution factor 250, inter-assay mean of six experiments
[8] = target: gp70 env protein of amphotropic MLV (4070A envelope), on purified viral particles (amphotropic murine leukemia virus (4070A envelope)); assay: ELISA on plate-bound MLV, dilution factor 1250, Exp074-DTV Plate 1
[9] = target: gp70 env protein of amphotropic MLV (4070A envelope), on purified viral particles (amphotropic murine leukemia virus (4070A envelope)); assay: ELISA on plate-bound MLV, dilution factor 250, Exp073-DTV Plate 2
[10] = target: gp70 env protein of amphotropic MLV (4070A envelope), on purified viral particles (amphotropic murine leukemia virus (4070A envelope)); assay: ELISA on plate-bound MLV, dilution factor 6250, Exp073-DTV Plate 1
[11] = target: gp70 env protein of amphotropic MLV (4070A envelope), on purified viral particles (amphotropic murine leukemia virus (4070A envelope)); assay: ELISA on plate-bound MLV, dilution factor 250, Exp121-Ana Plate 1
[12] = target: gp70 env protein of amphotropic MLV (4070A envelope), on purified viral particles (amphotropic murine leukemia virus (4070A envelope)); assay: ELISA on plate-bound MLV, dilution factor 31250, Exp072-DTV Plate 2
[13] = target: gp70 env protein of amphotropic MLV (4070A envelope), on purified viral particles (amphotropic murine leukemia virus (4070A envelope)); assay: ELISA on plate-bound MLV, dilution factor 50, Exp125-Ana Plate 2
[14] = target: gp70 env protein of amphotropic MLV (4070A envelope), on purified viral particles (amphotropic murine leukemia virus (4070A envelope)); assay: ELISA on plate-bound MLV, dilution factor 1250, Exp072-DTV Plate 2
[15] = target: gp70 env protein of amphotropic MLV (4070A envelope), on purified viral particles (amphotropic murine leukemia virus (4070A envelope)); assay: ELISA on plate-bound MLV, dilution factor 6250, Exp074-DTV Plate 2
[16] = target: gp70 env protein of amphotropic MLV (4070A envelope), on purified viral particles (amphotropic murine leukemia virus (4070A envelope)); assay: ELISA on plate-bound MLV, dilution factor 31250, Exp122-Ana Plate 2
[17] = target: gp70 env protein of amphotropic MLV (4070A envelope), on purified viral particles (amphotropic murine leukemia virus (4070A envelope)); assay: ELISA on plate-bound MLV, dilution factor 781250, Exp122-Ana Plate 1
[18] = target: gp70 env protein of amphotropic MLV (4070A envelope), on purified viral particles (amphotropic murine leukemia virus (4070A envelope)); assay: ELISA on plate-bound MLV, dilution factor 1250, inter-assay mean of six experiments
[19] = target: gp70 env protein of amphotropic MLV (4070A envelope), on purified viral particles (amphotropic murine leukemia virus (4070A envelope)); assay: ELISA on plate-bound MLV, dilution factor 31250, Exp121-Ana Plate 1
[20] = target: gp70 env protein of amphotropic MLV (4070A envelope), on purified viral particles (amphotropic murine leukemia virus (4070A envelope)); assay: ELISA on plate-bound MLV, dilution factor 6250, Exp073-DTV Plate 2
[21] = target: gp70 env protein of amphotropic MLV (4070A envelope), on purified viral particles (amphotropic murine leukemia virus (4070A envelope)); assay: ELISA on plate-bound MLV, dilution factor 781250, Exp121-Ana Plate 2
[22] = target: gp70 env protein of amphotropic MLV (4070A envelope), on purified viral particles (amphotropic murine leukemia virus (4070A envelope)); assay: ELISA on plate-bound MLV, dilution factor 250, Exp125-Ana Plate 2
[23] = target: gp70 env protein of amphotropic MLV (4070A envelope), on purified viral particles (amphotropic murine leukemia virus (4070A envelope)); assay: ELISA on plate-bound MLV, dilution factor 31250, Exp074-DTV Plate 2
[24] = target: gp70 env protein of amphotropic MLV (4070A envelope), on purified viral particles (amphotropic murine leukemia virus (4070A envelope)); assay: ELISA on plate-bound MLV, dilution factor 50, inter-assay mean of six experiments
[25] = target: gp70 env protein of amphotropic MLV (4070A envelope), on purified viral particles (amphotropic murine leukemia virus (4070A envelope)); assay: ELISA on plate-bound MLV, dilution factor 250, Exp122-Ana Plate 2
[26] = target: gp70 env protein of amphotropic MLV (4070A envelope), on purified viral particles (amphotropic murine leukemia virus (4070A envelope)); assay: ELISA on plate-bound MLV, dilution factor 781250, Exp072-DTV Plate 2

gp70 env protein of amphotropic MLV (4070A envelope), on purified viral particles (amphotropic murine leukemia virus (4070A envelope)), sequence (P21995 whole entry): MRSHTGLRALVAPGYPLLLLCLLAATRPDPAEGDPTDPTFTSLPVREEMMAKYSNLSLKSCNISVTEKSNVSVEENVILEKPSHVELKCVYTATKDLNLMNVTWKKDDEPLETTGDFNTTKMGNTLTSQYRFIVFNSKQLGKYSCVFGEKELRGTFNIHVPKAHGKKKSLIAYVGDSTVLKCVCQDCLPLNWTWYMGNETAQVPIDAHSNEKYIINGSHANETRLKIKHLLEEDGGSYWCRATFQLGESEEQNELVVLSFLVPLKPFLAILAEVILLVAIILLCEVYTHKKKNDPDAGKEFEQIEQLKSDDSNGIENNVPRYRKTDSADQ

Work on “83A25 monoclonal antibody (rat IgG2a, anti-gp70)” yielded a Mean OD [1] of 1.7 OD, a Mean OD [2] of 1.89 OD and a Mean OD [3] of 0.087 OD. The Mean OD [4] was 2.27 OD, the Mean OD [5] was 2.17 OD and the Mean OD [6] was 0.64 OD. For the same substance, the Mean OD (inter-assay mean) [7] was 1.93 OD, the Mean OD [8] was 1.45 OD and the Mean OD [9] was 2.12 OD. For the same substance, the Mean OD [10] was 0.803 OD, the Mean OD [11] was 2.37 OD and the Mean OD [12] was 0.21 OD. For the same substance, the Mean OD [13] was 1.96 OD, the Mean OD [14] was 1.31 OD and the Mean OD [15] was 0.699 OD. The Mean OD [16] was 0.271 OD, the Mean OD [17] was 0.162 OD and the Mean OD (inter-assay mean) [18] was 1.53 OD. For the same substance, the Mean OD [19] was 0.322 OD, the Mean OD [20] was 0.773 OD and the Mean OD [21] was 0.131 OD. It also gave a Mean OD [22] of 1.88 OD, a Mean OD [23] of 0.25 OD and a Mean OD (inter-assay mean) [24] of 2.09 OD. For the same substance, the Mean OD [25] was 1.7 OD and the Mean OD [26] was 0.104 OD.
